Tested on: Oxidatively competent cells
Experiment: Antimycin A-induced cell death in oxidatively competent cells, SYTOX assay after 4 hours
Assay type: cell-based, rat-human hybrid (GCL1)
Details: lactoferrin alone at 100 μg/ml
Description: The GCL1 (WiF-B) liver cell line is a hybrid originating from the fusion of rat hepatoma cells (fao) and human fibroblasts (W138). Cassio et al. (1991) J. Cell Biol. 115:1397-1408; Shanks et al. (1994) J. Cell Science 107:813-825. […] Ihrke et al. 1993, J. Cell Biol. 123:1761-1775. At greater than 80% confluence, more than 80% of the cells participate in forming one or more phaselucent, spherical structures that are located between cells, termed bile canicular-like spaces. In contrast to the majority of cell lines maintained in culture which are fermentative, GCL1 cells, when at their maximal density and polarity, are highly oxidative (i.e., they can be readily killed by inhibitors of oxidative phosphorylation or electron transport uncouplers). […] These cells are amenable to use in high throughput screening (HTS) technology.
Energetically competent cells are seeded onto 96-well plates at 1×10^3/well or 2.5×10^3/well as passage 15. The cells are grown in DMEM with 10% FBS and 1.5 g/L sodium bicarbonate for 24 or 48 hours to reach 85% confluence. The cells are washed once with HBSS and then 100 μl of HBSS containing different concentration of AA (Sigma Chemical Co., Cat # A 8674) is added to the cells. AA is dissolved in DMSO to make a stock solution of 50 mM, then diluted with HBSS to 100, 50, 25, 12.5, 6.25, 3.125, and 1.56 μM for dose-response curves. […]

B1: lactoferrin: Bovine lactoferrin, iron-binding glycoprotein of milk (Sigma cat. # L9507 or DMV International Nutritionals) (protein, UniProt P24627 20-708, looked up)
Lactotransferrin: APRKNVRWCTISQPEWFKCRRWQWRMKKLGAPSITCVRRAFALECIRAIAEKKADAVTLDGGMVFEAGRDPYKLRPVAAEIYGTKESPQTHYYAVAVVKKGSNFQLDQLQGRKSCHTGLGRSAGWIIPMGILRPYLSWTESLEPLQGAVAKFFSASCVPCIDRQAYPNLCQLCKGEGENQCACSSREPYFGYSGAFKCLQDGAGDVAFVKETTVFENLPEKADRDQYELLCLNNSRAPVDAFKECHLAQVPSHAVVARSVDGKEDLIWKLLSKAQEKFGKNKSRSFQLFGSPPGQRDLLFKDSALGFLRIPSKVDSALYLGSRYLTTLKNLRETAEEVKARYTRVVWCAVGPEEQKKCQQWSQQSGQNVTCATASTTDDCIVLVLKGEADALNLDGGYIYTAGKCGLVPVLAENRKSSKHSSLDCVLRPTEGYLAVAVVKKANEGLTWNSLKDKKSCHTAVDRTAGWNIPMGLIVNQTGSCAFDEFFSQSCAPGADPKSRLCALCAGDDQGLDKCVPNSKEKYYGYTGAFRCLAEDVGDVAFVKNDTVWENTNGESTADWAKNLNREDFRLLCLDGTRKPVTEAQSCHLAVAPNHAVVSRSDRAAHVKQVLLHQQALFGKNGKNCPDKFCLFKSETKNLLFNDNTECLAKLGGRPTYEEYLGTEYVTAIANLKKCSTSPLLEACAFLTR
- cell death (Example 8, experiment with (+/−)-alpha tocopherol): 85.9%
- cell death (Example 8, experiment with alpha-tocopherol Type V): 96%

Reference: patent US6426362B1, “Formulations of tocopherols and methods of making and using them” (Galileo Laboratories, Inc., priority 1999, dated 2002)
